Laboratory results as given in patent US10809222B2, “Opioid detection based on high quality graphene transistor arrays and a synthetic mu receptor” (priority 2013, dated 2020).

What was measured:
mu receptor protein = mu receptor protein (Homo sapiens, UniProt P35372); assay: GFET sensor response (Dirac voltage shift) of mu receptor protein-functionalized graphene transistors; settings: 10 micrograms/mL, negative control of specificity, 15-25 devices
Experimental: First, the graphene was functionalized through the use of a diazonium salt. The carboxylate group was then activated by EDC and stabilized with NHS. Mu receptor protein displaced the NHS to form an amide bond.
The graphene transistor was functionalized by incubation at 55° C. in a water solution of carboxylated diazonium salt (2.0 mg/mL in DI water). Carboxylic acid groups from the diazonium functionalization were activated and stabilized with 1-ethyl-3-[3-dimethylaminopropyl]carbodiimide hydrochloride/sulfo-Nhydroxysuccinimide (EDC/NHS) at an EDC concentration of 9 mg/15 mL MES buffer and NHS concentration of 20 mg/15 mL MES buffer. NHS molecules were displaced by Mu receptor proteins (3 micrograms/mL) in buffer (40 microM NaPi/260 microM NaCl/0.00004% SDS/10 microM 2-ME/pH 7.0), forming a covalent amide bond between the protein and the graphene. The devices were then electrically characterized and then their sensitivity to opioid exposure was measured.
The source-drain current value is at a minimum at the gate voltage value at which conductance is at a minimum. The increase in Dirac voltage was defined as the sensing response (change in signal, i.e. electronic characteristic) for this ligand. […] The inset is a magnified view of this shift in the Dirac voltage.
Each concentration was tested against 15-30 devices. […]

mu-receptor protein = assay: Raman spectroscopy optical readout of ligand binding on mu-receptor-protein-functionalized GFET; set-up: species or system human
Source text: Raman spectroscopy of the graphene layer in a functionalized GFET was used as an optical readout method to detect ligand binding. […]
A similar shift is seen in the 2D peak in FIG. 8c. No shifts were seen after exposure to pure buffer as a negative control, in FIGS. 8d and 8e.

[1] = Secondary structure content by circular dichroism; format: physicochemical
Source text: The CD spectra indicated predominantly helical structures with a helical secondary structure content of ˜48% (estimations based on the molar ellipticity over the range 205 to 260 nm). The comparison of the helical content with that of the native human MUR expressed in yeast system in the presence of high concentration of detergent (0.1% SDS) is presented in Table 1.

[2] = Thermostability by circular dichroism; settings: 5 mM sodium phosphate; for melting point (CD thermostability): 0.01% SDS, pH=7.0
Experimental: The secondary structure of the water-soluble variant was determined through circular dichroism (CD). Circular dichroism (CD) spectra were recorded by using CD Spectrometer (Chirascan, AppliedPhotophysics Limited, Leatherhead, United Kingdom) with a scan speed of 1 nm/s and 1 mm path length. Corresponding blanks were used for calibration for each assay and subtracted from raw data. Two data sets were recorded and averaged to increase the signal-to-noise ratio. The CDNN CD spectra deconvolution software was utilized to determine the secondary structure content of the proteins. […] Absorbance was maintained lower than 1.0 to ensure sufficient light transmission. The temperature-dependence curve was plotted using GraphPad Prism® (version 5, GraphPad Software, Inc. La Jolla).

[3] = Effects of denaturant (urea) and reducing agent (2-ME) by CD and intrinsic tryptophan fluorescence; format: physicochemical; settings: normalized to no denaturant
Experimental: CD and intrinsic tryptophan fluorescence were used to probe disulfide bond formation in the water-soluble variant. […] Even in 8 M urea, the protein retains some helical structure (Table 2). Upon addition of 2-ME, both the molar ellipticity and fluorescence further decreased, becoming more pronounced at the higher concentration of the reducing agent (200 mM). Thus the presence of an intramolecular disulfide bond is corroborated in the case of wsMUR-TM.

[4] = system: human μ opioid receptor expressed in HEK293 cells; assay: Competitive TR-FRET (HTRF) binding competition assay with native MUR and naltrexone-derived fluorescent antagonist; settings: methodology described for FIG. 16
Source text: FIG. 16. […] Data is used to calculate HTRF ratios, and represent the mean±standard error of mean of quadruplicates. ΔF is used for the comparison of different runs of the same assay which reflects the signal to background of the assay. ΔF=[(Ratiosample−Ratiobackgroud)/Ratiobackgroud](%).
A recently developed methodology which uses a fluorescently labeled ligand and the native MUR was used to investigate the ligand-binding capabilities of the water-soluble receptors.

[5] = pH 7.0 + 0.1% SDS, expressed in yeast system

Chain of mu receptor protein (P35372 whole entry, looked up): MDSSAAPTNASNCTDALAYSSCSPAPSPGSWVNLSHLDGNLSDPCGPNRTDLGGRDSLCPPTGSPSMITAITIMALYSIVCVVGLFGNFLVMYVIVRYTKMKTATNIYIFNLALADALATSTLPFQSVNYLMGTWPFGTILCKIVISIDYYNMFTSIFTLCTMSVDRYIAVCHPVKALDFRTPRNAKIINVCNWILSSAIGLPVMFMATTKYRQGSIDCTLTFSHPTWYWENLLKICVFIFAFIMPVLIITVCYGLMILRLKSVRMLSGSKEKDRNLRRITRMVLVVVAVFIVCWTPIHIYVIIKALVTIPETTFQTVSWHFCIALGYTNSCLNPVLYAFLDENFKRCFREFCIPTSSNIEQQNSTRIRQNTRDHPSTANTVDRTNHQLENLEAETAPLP

CCOC(=O)c1ncn2c1CN(C)C(=O)c1cc(F)ccc1-2 [Flumazenil]
sensor response (Dirac voltage shift) (mu receptor protein): −0.2±0.4 V

O=C1CC[C@@]2(O)[C@H]3Cc4ccc(O)c5c4[C@@]2(CCN3CC2CC2)[C@H]1O5 [naltrexone]
Average 2D peak position after analyte (mu-receptor protein; 10 ng/mL): 2683.19 ± 0.20 | Average G peak position after analyte (mu-receptor protein; 10 ng/mL): 1591.61 ± 0.13 | Average 2D peak position after analyte (mu-receptor protein; 10 micrograms/mL): 2685.83 ± 0.26 | Average G peak position after analyte (mu-receptor protein; 10 micrograms/mL): 1594.39 ± 0.15

Native MUR: native human μ receptor expressed in yeast system, in 0.1% SDS [reference compound]
Helix content (CD 205-260 nm) [1, 5]: 40.6% | Others content (CD 205-260 nm) [1, 5]: 40.5% | Turn content (CD 205-260 nm) [1, 5]: 18.9%

B1: wsMUR-TM: transmembrane-only water-soluble human mu receptor variant (protein)
chain: SMITAIKIHEEYKKVCEEGKKGNKLVMEVIVRYTKMKTATNIYIFNLAKADALAESTLPFQSVNKLMGTWPFGTILCKKVISIDYYNMFTSIFTLCTMSVDRYIAVCHPVKALDFRTPRNAKEENEKNWKLSSEIGKPVEKKATTKYRQGSIDCTLTFSHPTWYWEDKLKDEVFKKAFEEPVKKIKECYGLMILRLKSVRMLSGSKEKDRNLRRITRMVLVVVEVFIKCWTEIHKYVKEGKLVTIPETTFQTVSWHECIAKGYKNSCENPKLYEELDENFKRCFREFC
temperature at which ellipticity (222 nm) starts to be lost significantly ([2]; pH=7.0, 10 to 90° C.): ~62 °C | melting point (CD thermostability) ([2]; absence of cholesterol): 82.9 °C | melting point (CD thermostability) ([2]; presence of cholesterol): 89.3 °C | Helix content (CD 205-260 nm) ([1]; pH 7.0 in NaHPO4): 48.0% | Others content (CD 205-260 nm) ([1]; pH 7.0 in NaHPO4): 37.4% | Turn content (CD 205-260 nm) ([1]; pH 7.0 in NaHPO4): 14.6% | Fluorescence Peak Intensity (%; 300-350 nm) ([3]; Urea (8M) 2-ME (25 mM)): 23.9% | Molar Ellipticity (%; 222 nm) ([3]; Urea (8M) 2-ME (25 mM)): 25.1% | Fluorescence Peak Intensity (%; 300-350 nm) ([3]; Urea (8M) 2-ME (200 mM)): 4.5% | Molar Ellipticity (%; 222 nm) ([3]; Urea (8M) 2-ME (200 mM)): 0.0% | Fluorescence Peak Intensity (%; 300-350 nm) ([3]; Urea (8M)): 28.4% | Molar Ellipticity (%; 222 nm) ([3]; Urea (8M)): 40.0%

B2: wsMUR-TM+7mut: second wsMUR recombinant protein (protein)
chain: SMITAIKILEEYKKVCEEGRKGNKLVMEVIVRYTKMKTATNIYIFNLAKADALAESTLPFQSVNKLMGTWPFGTILCKKVISIDYYNMFTSIFTLCTMSVDRYIAVCHPVKALDFRTPRNAKEHNEKNWKLSSEIGKPVEKRATTKYRQGSIDCTLTFSHPTWYWEDKLKDTVFKKAFEEPVKVIKECYGLMILRLKSVRMLSGSKEKDRNLRRITRMVLVVVEVFIKCWTEIHKYVKEGKL
binding activity / affinity with naltrexone [4]: binding activity was also observed
